Results: the supplement of paper PMC9732359
± gives the uncertainty stated by the source.

Test: protein stability index of a GFP-peptide fusion (yeast GPS) (PSI 1-4); higher = more stable; sorted into four equal gates, so the index is relative within each strain
Outline: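 Tiled 17-residue yeast protein peptides were fused downstream of GFP in a plasmid that also expresses Cherry, and the pooled library was carried in yeast. Mid-log cultures in leucine-free medium were sorted into four equal gates by GFP/Cherry fluorescence ratio, and plasmids from each gate were PCR-amplified and Illumina-sequenced, with reads assigned to strains by barcodes. The protein stability index for each peptide was each gate's read frequency times its gate number, summed.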

Row | Sequence | protein stability index (doa10∆) | protein stability index (pdr5∆) | protein stability index (san1∆) | protein stability index (ubr1∆)
1 | KPANASHAIRLGNGVAC [RGR1] | 2.71 ± 0.06 | 3.06 ± 0.052 | 2.52 ± 0.058 | 3.01 ± 0.051
2 | KPDSDIVALSSEEINQY [PRE6] | 3.12 ± 0.05 | 3.03 ± 0.047 | 3.185 ± 0.03 | 3.17 ± 0.034
3 | KPEIDENGTLLVPPPRT [RPR2] | 3.02 ± 0.048 | 3.15 ± 0.051 | 2.99 ± 0.036 | 2.987 ± 0.029
4 | KPELRKKVMPAIVVRQA [RPL23A] | 2.83 ± 0.14 | 2.87 ± 0.086 | 2.61 ± 0.16 | 2.97 ± 0.063
5 | KPGIPRGNTKIHSMNEN [SIR3] | 3.23 ± 0.2 | 2.9 ± 0.22 | 3.32 ± 0.098 | 3.23 ± 0.12
6 | KPIYKDTRFGGRMDMTR [SSN2] | 3.1 ± 0.17 | 3.36 ± 0.14 | 3.33 ± 0.068 | 3.4 ± 0.14
7 | KPKKPKGRAYKRLLYTR [RPS30A] | 3.13 ± 0.098 | 2.79 ± 0.11 | 3.02 ± 0.086 | 2.99 ± 0.055
8 | KPSPIDSGIGSNGSGIV [CSL4] | 3.17 ± 0.06 | 2.89 ± 0.042 | 2.94 ± 0.04 | 3.1 ± 0.046
9 | KPSRTSRQVQKRPRSRT [RPS7A] | 3.08 ± 0.092 | 2.44 ± 0.085 | 2.68 ± 0.061 | 1.95 ± 0.14
10 | KPTVILKLLKENIIQME [FAS1] | 1.38 ± 0.087 | 1.36 ± 0.12 | 1.24 ± 0.11 | 1.1 ± 0.11
11 | KQENSTLLKKANRDDVK [RPC82] | 2.72 ± 0.085 | 2.51 ± 0.13 | 3.16 ± 0.22 | 3.12 ± 0.09
12 | KQINEARDEILPLRLQF [PGD1] | 2.13 ± 0.065 | 2.63 ± 0.077 | 2.4 ± 0.074 | 2.77 ± 0.052
13 | KQLEKRDYQRINKNSKI [POP4] | 2.06 ± 0.067 | 2.4 ± 0.068 | 2.02 ± 0.11 | 2.69 ± 0.11
14 | KRAFENFKKFNERRKDL [SMC3] | 3.45 ± 0.078 | 3.26 ± 0.068 | 3.51 ± 0.068 | 3.15 ± 0.075
15 | KRAKEFITTLLKSLYSF [SIN4] | 2.19 ± 0.039 | 1.94 ± 0.05 | 1.83 ± 0.07 | 1.87 ± 0.032
16 | KREGRNELQEERLKVPI [POP6] | – | 3.37 ± 0.2 | – | –
17 | KREIQEALSEKPTREPT [RPC53] | 2.96 ± 0.11 | 2.86 ± 0.098 | 3.05 ± 0.11 | 3.15 ± 0.1
18 | KRELLKRYRLKESQLPR [RPB5] | 3.19 ± 0.2 | 3.29 ± 0.14 | – | 3.58 ± 0.14
19 | KRFKRKDNAKISNNLAL [SRP68] | 2.31 ± 0.054 | 2.59 ± 0.067 | 2.26 ± 0.079 | 1.95 ± 0.045
20 | KRFQVLYPCYFDINRSH [SEC65] | 2.11 ± 0.062 | 2.11 ± 0.055 | 1.88 ± 0.071 | 2.06 ± 0.039
21 | KRKEELVSTLTTGISST [SMC2] | 2.3 ± 0.061 | 2.07 ± 0.052 | 2.61 ± 0.086 | 2.11 ± 0.045
22 | KRKPAKSSSNRSCVSNS [RPN4] | 2.89 ± 0.059 | 3.01 ± 0.077 | 3.08 ± 0.065 | 2.98 ± 0.048
23 | KRPRSRTLTAVHDKILE [RPS7A] | 2.06 ± 0.054 | 2.13 ± 0.052 | 2.25 ± 0.064 | 1.88 ± 0.041
24 | KRQLIKERNQKFQLQNQ [YIL149C/MLP2] | 2.75 ± 0.096 | 3.17 ± 0.11 | 2.99 ± 0.059 | 2.78 ± 0.05
25 | KRSFSSTLKSFFTNPNK [YOR098C/NUP1] | 2.39 ± 0.039 | 2.31 ± 0.04 | 2.32 ± 0.052 | 2.28 ± 0.033
26 | KRSGHRTAPKSDNVYLK [RPL18A] | 2.85 ± 0.12 | 2.68 ± 0.095 | 2.69 ± 0.12 | 2.61 ± 0.077
27 | KRYTSEGTRNRFSYSPP [YMR129W/POM152] | 3.09 ± 0.088 | 3.09 ± 0.063 | 2.92 ± 0.043 | 3.09 ± 0.043

Row | Sequence | protein stability index (doa10∆) | protein stability index (pdr5∆) | protein stability index (san1∆) | protein stability index (ubr1∆)
28 | KSAMDTFKSVSKYGMLL [POP3] | 2.41 ± 0.063 | 2.87 ± 0.056 | 2.7 ± 0.07 | 2.45 ± 0.055
29 | KSDTVTSASQPFKFGKT [YOR098C/NUP1] | 2.34 ± 0.081 | 1.71 ± 0.069 | 1.62 ± 0.12 | 1.97 ± 0.052
30 | KSFTNDKIPLNYAMTRN [SRB5] | 2.8 ± 0.13 | 2.55 ± 0.1 | 2.45 ± 0.06 | 2.67 ± 0.069
31 | KSGIPEFTPADPNLSFE [SSN2] | 2.96 ± 0.091 | 3.04 ± 0.055 | 2.78 ± 0.054 | 3.25 ± 0.062
32 | KSHSTVSSSSRHHRKTE [ISW2] | 2.7 ± 0.055 | 2.69 ± 0.043 | 2.14 ± 0.052 | 2.88 ± 0.041
33 | KSICFENCLNNDPEILK [SWI1] | 2.2 ± 0.087 | 2.69 ± 0.056 | 2.83 ± 0.068 | 2.7 ± 0.074
34 | KSLDKKIAKRRQVYKPV [POP3] | 3.25 ± 0.21 | 3.09 ± 0.15 | 2.54 ± 0.23 | 3.5 ± 0.2
35 | KSLEVVNADTVGKTVKQ [NSL1] | 3.13 ± 0.059 | 2.99 ± 0.049 | 2.77 ± 0.051 | 3.08 ± 0.047
36 | KSLGVKSLGGGAALKDI [FAS2] | 3 ± 0.051 | 2.25 ± 0.049 | 2.41 ± 0.048 | 2.86 ± 0.057
37 | KSLLLNTLNIDNTARVI [BRN1] | 2.71 ± 0.057 | 2.48 ± 0.052 | 2.47 ± 0.066 | 2.42 ± 0.034
38 | KSPEQCILRFLQLPIED [SWI3] | 1.81 ± 0.067 | 2.3 ± 0.062 | 1.76 ± 0.12 | 1.41 ± 0.038
39 | KSQNTALPSTHKVTQKK [SIR4] | 2.6 ± 0.061 | 2.9 ± 0.061 | 2.79 ± 0.071 | 3.01 ± 0.05
40 | KSSGSSMATPTHSDSHE [ROX3] | 3.08 ± 0.16 | 2.97 ± 0.1 | 2.82 ± 0.064 | 2.52 ± 0.091
41 | KSSWRQEWLANLKLISV [SIR4] | 1.71 ± 0.057 | 1.45 ± 0.042 | 1.64 ± 0.16 | 1.46 ± 0.045
42 | KSTDLTPKGNESEQELS [MTR3] | 3.39 ± 0.11 | 2.9 ± 0.089 | 2.46 ± 0.089 | 3.21 ± 0.054
43 | KSTDNSAIRQVFERFKT [IRR1] | 2.21 ± 0.046 | 2.7 ± 0.046 | 2.19 ± 0.062 | 2.8 ± 0.045
44 | KSWLNRLNNWLFGWNDL [YMR153W/NUP53] | 2.63 ± 0.057 | 2.33 ± 0.045 | 2.03 ± 0.065 | 2.68 ± 0.04
45 | KSYYLNTVMLQGIFKNS [AAR2] | 1.34 ± 0.069 | 1.26 ± 0.076 | 2.14 ± 0.14 | 1.24 ± 0.054
46 | KTGITKKDEDEEADEDM [PRE9] | 3.37 ± 0.13 | 3.7 ± 0.26 | 3.5 ± 0.11 | 2.95 ± 0.23
47 | KTKEAVAALKAVGAHSD [RPL4A] | 3.47 ± 0.087 | 3.51 ± 0.067 | 3.08 ± 0.096 | 3.38 ± 0.062
48 | KTNEESAKMILLSDPTI [PRP8] | 2.77 ± 0.12 | 2.95 ± 0.16 | 2.94 ± 0.1 | 2.92 ± 0.042
49 | KTPEEVEVYAKIFWERL [ISW2] | 1.74 ± 0.081 | 2.91 ± 0.17 | 3.03 ± 0.17 | 3.29 ± 0.085
50 | KTQQNEKSENGENDDDT [RPN3] | 3.04 ± 0.19 | 3.41 ± 0.18 | 2.92 ± 0.13 | 3.34 ± 0.11
51 | KTSNIESVPIYSIDEFF [BRR2] | 2.56 ± 0.062 | 2.58 ± 0.067 | 2.34 ± 0.045 | 2.13 ± 0.083
52 | KTTRLLLIIRSLKNTDA [YJL039C/NUP192] | 1.51 ± 0.056 | 1.31 ± 0.053 | 1.19 ± 0.12 | 1.11 ± 0.059
53 | KTYEPVLNEDDLAFGGE [RPN5] | 3.27 ± 0.09 | 3.1 ± 0.089 | 3.29 ± 0.058 | 3.51 ± 0.12
